# In publication PMC9630130, “Molecular interactions of FG nucleoporin repeats at high resolution” (Nature Chemistry, 2022):
# B1: Nup98(95–124) peptide with F117 and F120 replaced by serine (peptide, UniProt P52948 95-124, looked up)
# peptide: ASTGTSLFSSQNNAFAQNKPTGSGNSGTST
# notes: also called phenylalanine-to-serine mutant peptide; source: synthetic peptide (solid-phase synthesis, Genscript)
# B2: FG-repeat domain of human Nup98 (Nup98^FG, residues 1–384) (domain or fragment, UniProt P52948 1-384, looked up)
# chain: MFNKSFGTPFGGGTGGFGTTSTFGQNTGFGTTSGGAFGTSAFGSSNNTGGLFGNSQTKPGGLFGTSSFSQPATSTSTGFGFGTSTGTANTLFGTASTGTSLFSSQNNAFAQNKPTGFGNFGTSTSSGGLFGTTNTTSNPFGSTSGSLFGPSSFTAAPTGTTIKFNPPTGTDTMVKAGVSTNISTKHQCITAMKEYESKSLEELRLEDYQANRKGPQNQVGAGTTTGLFGSSPATSSATGLFSSSTTNSGFAYGQNKTAFGTSTTGFGTNPGGLFGQQNQQTTSLFSKPFGQATTTQNTGFSFGNTSTIGQPSTNTMGLFGVTQASQPGGLFGTATNTSTGTAFGTGTGLFGQTNTGFGAVGSTLFGNNKLTTFGSSTTSAPSFG
# notes: human nucleoporin 98 (Nup98), amino-terminal 384 residues (FG-repeat domain), in pET28a between NheI and XhoI; The methods describe no step that cleaves the His tag; also called 384-residue Nup98^FG domain; source: E. coli BL21(DE3), purified from the pellet in urea (Ni-NTA, two SEC steps)
# B3: Nup98(95–124) peptide (peptide, UniProt P52948 95-124, looked up)
# peptide: Ac-ASTGTSLFSSQNNAFAQNKPTGFGNFGTST-NH2
# notes: source: synthetic peptide (solid-phase synthesis, Genscript)
# B4: Nup98(345–384) peptide (peptide, UniProt P52948 345-384, looked up)
# peptide: Ac-TGTGLFGQTNTGFGAVGSTLFGNNKLTTFGSSTTSAPSFG-NH2
# notes: human nucleoporin 98 (Nup98), residues 345-384; source: synthetic peptide (solid-phase synthesis, Genscript)
# B5: Nup98^FG85 (residues 85–124 of human Nup98) (peptide, UniProt P52948 85-124, looked up)
# peptide: TGTANTLFGTASTGTSLFSSQNNAFAQNKPTGFGNFGTST
# notes: It forms amyloid fibrils of indefinite length with 3 (pm1) or 2 (pm2-pm4) protofilaments; also called Nup98^FG85 segment; source: synthetic peptide (solid-phase synthesis, Genscript)
# B6: Nup98(95–124) peptide with Q105 and Q111 replaced by serine (peptide, UniProt P52948 95-124, looked up)
# peptide: ASTGTSLFSSSNNAFASNKPTGFGNFGTST
# notes: also called glutamine-to-serine mutant peptide; source: synthetic peptide (solid-phase synthesis, Genscript)
# B7: Nup98(298–327) peptide (peptide, UniProt P52948 298-327, looked up)
# peptide: Ac-TGFSFGNTSTIGQPSTNTMGLFGVTQASQP-NH2
# notes: human nucleoporin 98 (Nup98), residues 298-327; source: synthetic peptide (solid-phase synthesis, Genscript)
# Key:
# [1] = target: the molecule itself; assay: time-dependent loss of NMR signal (self-association/aggregation); synthetic Nup98 peptides alone in solution; propensity = difference between the NMR signal expected for the peptide concentration and that observed after 1 day of incubation at 5 °C (Fig. 2c); kinetics of 95-124 and its mutants in Supplementary Fig. 5
# [2] = target: the molecule itself; assay: loss of 1D 1H NMR signal on change of pH; Nup98^FG (200 μM) or Nup98^FG85 (100 μM) in 50 mM sodium phosphate, 1 mM TCEP, 0.01% NaN3, 5% D2O; pH 3, adjusted to pH 7, then back to pH 3 and 30 min at 65 °C
# [3] = target: the molecule itself; assay: aggregation of NMR assignment samples; 2 mM peptide in 50 mM sodium phosphate, 0.01% NaN3, 5% D2O, pH 6.8; NMR at 5 °C
# [4] = target: the molecule itself; assay: cryo-EM structure; amyloid fibrils of Nup98^FG85: peptide dissolved in pure water at 1.5 mM, incubated at 25 °C for 1 h; helical reconstruction of four polymorphs (pm1-pm4)
protein,measurement,setting,value
B1,binding result,[1],binds
B2,binding result,[2],binds
B3,binding result,[1],binds
B4,binding result,[3],binds
B5,binding result,[4],binds
B6,binding result,[1],binds
B7,binding result,[3],binds
